Test results as given in paper PMC7840129, “Structural basis for heme-dependent NCoR binding to the transcriptional repressor REV-ERBβ” (Science Advances, 2021).

Key:
REV-ERBβ LBD / NCoR RID = assay: Chemical cross-linking mass spectrometry (XL-MS); type: binding; details: apo LBD and heme-bound LBD ± RID; DSSO
Method: (§1) Apo or heme-bound REV-ERBβ LBD and NCoR RID protein samples were cross-linked in Hepes gel filtration buffer [25 mM Hepes (pH 7.5) at room temperature, 50 mM NaCl, and 0.5 mM TCEP]. Non–cross-linked negative controls were generated using the same procedure without the addition of DSSO (Thermo Fisher Scientific). Samples included 4 μM apo LBD with or without 2 μM RID and 4 μM heme-bound LBD with or without 2 μM RID; complexes were preincubated 1 hour on ice. Reactions were initiated by spiking DSSO in DMSO at a final concentration of 600 μM in 50-μl solutions. The final molar ratio of cross-linker:protein was 100:1. The reactions were incubated at 25°C for 45 min before being quenched by the addition of tris (pH 8.0) to a final concentration of 50 mM. Each cross-link reaction was done in triplicate, and the reaction replicates were pooled after quenching. Samples (10 μl) were loaded for SDS-PAGE analysis with Coomassie staining to confirm the presence of cross-linked protein. The remaining cross-linked and non–cross-linked samples were then acetone-precipitated at −20°C overnight, and the protein was pelleted by centrifugation at 16,000 relative centrifugal force (rcf) for 5 min at 4°C. After decanting, the pellets were dried for 15 min at room temperature before being resuspended in 12.5 μl of resuspension buffer [50 mM ammonium bicarbonate and 8 M urea (pH 8.0)]. […]

REV-ERBβ LBD = assay: DSSO chemical cross-linking, SDS-PAGE; type: binding, human; details: 4 μM LBD ± heme with 2 μM RID, 600 μM DSSO, 25°C, 45 min
Method: To further support this stoichiometry, we performed chemical cross-linking analysis of apo or heme-bound LBD ± RID using DSSO (disuccinimidyl sulfoxide), a cross-linker that cross-links lysine residues as well as serine, threonine, and tyrosine residues (fig. S9, A and B).
as §1, with “protein.” for “protein. The remaining cross-linked and non–cross-linked samples were then acetone-precipitated at −20°C overnight, and the protein was pelleted by centrifugation at 16,000 relative centrifugal force (rcf) for 5 min at 4°C. After decanting, the pellets were dried for 15 min at room temperature before being resuspended in 12.5 μl of resuspension buffer [50 mM ammonium bicarbonate and 8 M urea (pH 8.0)].”

B1: WT RID: mouse NCoR RID (residues 1942 to 2208 in the X50 splice variant) (protein, UniProt Q60974 1942-2208, looked up, fragment)
chain: TITAANFIDVIITRQIASDKDARERGSQSSDSSSSLSSHRYETASDAIEVISPASSPAPPQEKPQAYQPDMVKANQAENESTRQYEGPLHHYRSQQESPSPQQQPPLPPSSQSEGMGQVPRTHRLITLADHICQIITQDFARNQVPSQASTSTFQTSPSALSSTPVRTKTSSRYSPESQSQTVLHPRPGPRVSPENLVDKSRGSRPGKSPERSHIPSEPYEPISPPQGPAVHEKQDSMLLLSQRGVDPAEQRSDSRSPGSISYLPSF
modifications: X50 splice variant
For B1, the “effect of RID on LBD-LBD cross-links” value (REV-ERBβ LBD / NCoR RID) was “enhanced LBD-LBD cross-links” and the “LBD:RID complexes by cross-linking SDS-PAGE” value (REV-ERBβ LBD) was “two bands with molecular weights consistent with 1:1 and 2:1 LBD:RID complexes”.
